Tests used:
human C-peptide (human) [1] = assay: sandwich immunoassay, one-step; 9101 on particles, labeled antibody 9103
human C-peptide (human) [2] = assay: sandwich immunoassay, two-step; 9101 on particles, labeled antibody 9103
human C-peptide (human) [3] = assay: sandwich immunoassay, one-step; 9101 on particles, labeled antibody CPT-3F-11
human C-peptide (human) [4] = assay: sandwich immunoassay, two-step; 9101 on particles, labeled antibody CPT-3F-11
human C-peptide (human) [5] = assay: ELISA on immobilized C-peptide; labeled antibody 10 ug/ml, free C-peptide 0 ug/ml
human C-peptide (human) [6] = assay: ELISA on immobilized C-peptide; labeled antibody 10 ug/ml, free C-peptide 10 ug/ml
human C-peptide (human) [7] = assay: ELISA on immobilized C-peptide; labeled antibody 0.1 ug/ml, free C-peptide 0 ug/ml
human C-peptide (human) [8] = assay: ELISA on immobilized C-peptide; labeled antibody 1.0 ug/ml, free C-peptide 0 ug/ml
human C-peptide (human) [9] = assay: ELISA on immobilized C-peptide; labeled antibody 0.1 ug/ml, free C-peptide 10 ug/ml
human C-peptide (human) [10] = assay: ELISA on immobilized C-peptide; labeled antibody 1.0 ug/ml, free C-peptide 10 ug/ml
human C-peptide (human) [11] = assay: ELISA on immobilized C-peptide; labeled antibody 10 ug/ml, free C-peptide 0.1 ug/ml
human C-peptide (human) [12] = assay: ELISA on immobilized C-peptide; labeled antibody 10 ug/ml, free C-peptide 1.0 ug/ml
human C-peptide (human) [13] = assay: ELISA on immobilized C-peptide; labeled antibody 0.1 ug/ml, free C-peptide 0.1 ug/ml
human C-peptide (human) [14] = assay: ELISA on immobilized C-peptide; labeled antibody 0.1 ug/ml, free C-peptide 1.0 ug/ml
human C-peptide (human) [15] = assay: ELISA on immobilized C-peptide; labeled antibody 1.0 ug/ml, free C-peptide 0.1 ug/ml
human C-peptide (human) [16] = assay: ELISA on immobilized C-peptide; labeled antibody 1.0 ug/ml, free C-peptide 1.0 ug/ml
human C-peptide (human) [17] = assay: ELISA on immobilized C-peptide; labeled antibody 0.0 ug/ml (blank), free C-peptide 0 ug/ml
human C-peptide (human) [18] = assay: ELISA on immobilized C-peptide; labeled antibody 0.0 ug/ml (blank), free C-peptide 10 ug/ml
human C-peptide (human) [19] = assay: ELISA on immobilized C-peptide; labeled antibody 0.0 ug/ml (blank), free C-peptide 0.1 ug/ml
human C-peptide (human) [20] = assay: ELISA on immobilized C-peptide; labeled antibody 0.0 ug/ml (blank), free C-peptide 1.0 ug/ml
human C-peptide (human) [21] = assay: ELISA on immobilized C-peptide; labeled antibody 10 ug/ml, free C-peptide 0 ug/ml (reference)
human C-peptide (human) [22] = assay: ELISA on immobilized C-peptide; labeled antibody 0.1 ug/ml, free C-peptide 0 ug/ml (reference)
human C-peptide (human) [23] = assay: ELISA on immobilized C-peptide; labeled antibody 1.0 ug/ml, free C-peptide 0 ug/ml (reference)
human proinsulin (human) [24] = molecular target: human proinsulin (human) (UniProt P01308); assay: sandwich immunoassay, one-step, against C-peptide calibration; proinsulin 50 ng/ml; 9101 on particles, labeled antibody 9103
Chain of UniProt P01308 (P01308 25-110): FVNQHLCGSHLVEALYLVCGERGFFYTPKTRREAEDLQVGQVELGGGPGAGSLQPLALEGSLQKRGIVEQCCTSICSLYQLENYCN

human proinsulin (human) [25] = molecular target: human proinsulin (human) (UniProt P01308); assay: sandwich immunoassay, two-step, against C-peptide calibration; proinsulin 50 ng/ml; 9101 on particles, labeled antibody 9103
human proinsulin (human) [26] = molecular target: human proinsulin (human) (UniProt P01308); assay: sandwich immunoassay, one-step, against C-peptide calibration; proinsulin 200 ng/ml; 9101 on particles, labeled antibody 9103
human proinsulin (human) [27] = molecular target: human proinsulin (human) (UniProt P01308); assay: sandwich immunoassay, one-step, against C-peptide calibration; proinsulin 400 ng/ml; 9101 on particles, labeled antibody 9103
human proinsulin (human) [28] = molecular target: human proinsulin (human) (UniProt P01308); assay: sandwich immunoassay, two-step, against C-peptide calibration; proinsulin 200 ng/ml; 9101 on particles, labeled antibody 9103
human proinsulin (human) [29] = molecular target: human proinsulin (human) (UniProt P01308); assay: sandwich immunoassay, two-step, against C-peptide calibration; proinsulin 400 ng/ml; 9101 on particles, labeled antibody 9103
human proinsulin (human) [30] = molecular target: human proinsulin (human) (UniProt P01308); assay: sandwich immunoassay, one-step, against C-peptide calibration; proinsulin 50 ng/ml; 9101 on particles, labeled antibody CPT-3-F11
human proinsulin (human) [31] = molecular target: human proinsulin (human) (UniProt P01308); assay: sandwich immunoassay, two-step, against C-peptide calibration; proinsulin 50 ng/ml; 9101 on particles, labeled antibody CPT-3-F11
human proinsulin (human) [32] = molecular target: human proinsulin (human) (UniProt P01308); assay: sandwich immunoassay, one-step, against C-peptide calibration; proinsulin 200 ng/ml; 9101 on particles, labeled antibody CPT-3-F11
human proinsulin (human) [33] = molecular target: human proinsulin (human) (UniProt P01308); assay: sandwich immunoassay, one-step, against C-peptide calibration; proinsulin 400 ng/ml; 9101 on particles, labeled antibody CPT-3-F11
human proinsulin (human) [34] = molecular target: human proinsulin (human) (UniProt P01308); assay: sandwich immunoassay, two-step, against C-peptide calibration; proinsulin 200 ng/ml; 9101 on particles, labeled antibody CPT-3-F11
human proinsulin (human) [35] = molecular target: human proinsulin (human) (UniProt P01308); assay: sandwich immunoassay, two-step, against C-peptide calibration; proinsulin 400 ng/ml; 9101 on particles, labeled antibody CPT-3-F11
[36] = molecular target: modified C-peptide (human C-peptide having Arg-Arg bound to its N-terminal and Lys-Arg bound to its C-terminal) (human); assay: sandwich immunoassay, one-step, against C-peptide calibration; modified C-peptide 5 ng/ml; 9101 on particles, labeled antibody 9103
Chain of modified C-peptide (human C-peptide having Arg-Arg bound to its N-terminal and Lys-Arg bound to its C-terminal) (human) (peptide, as listed by the source): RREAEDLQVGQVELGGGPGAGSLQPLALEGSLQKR

[37] = molecular target: modified C-peptide (human C-peptide having Arg-Arg bound to its N-terminal and Lys-Arg bound to its C-terminal) (human); assay: sandwich immunoassay, two-step, against C-peptide calibration; modified C-peptide 5 ng/ml; 9101 on particles, labeled antibody 9103
[38] = molecular target: modified C-peptide (human C-peptide having Arg-Arg bound to its N-terminal and Lys-Arg bound to its C-terminal) (human); assay: sandwich immunoassay, one-step, against C-peptide calibration; modified C-peptide 5 ng/ml; 9101 on particles, labeled antibody CPT-3F-11
[39] = molecular target: modified C-peptide (human C-peptide having Arg-Arg bound to its N-terminal and Lys-Arg bound to its C-terminal) (human); assay: sandwich immunoassay, two-step, against C-peptide calibration; modified C-peptide 5 ng/ml; 9101 on particles, labeled antibody CPT-3F-11

Chain of human C-peptide (human) (peptide, as listed by the source): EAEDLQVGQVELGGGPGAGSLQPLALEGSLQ

2S/N value (human C-peptide (human) [1]): 0.222 ng/mL
2S/N value (human C-peptide (human) [2]): 0.11 ng/mL
2S/N value (human C-peptide (human) [3]): 0.008 ng/mL
2S/N value (human C-peptide (human) [4]): 0.009 ng/mL
Absorbance (absorbance at 405 nm) (human C-peptide (human) [5]): 1.98
Absorbance (absorbance at 405 nm) (human C-peptide (human) [6]): 0.001
Binding Ratio (human C-peptide (human) [6]): 0.1%
Absorbance (absorbance at 405 nm) (human C-peptide (human) [7]): 1.26
Absorbance (absorbance at 405 nm) (human C-peptide (human) [8]): 1.69
Absorbance (absorbance at 405 nm) (human C-peptide (human) [9]): 0
Binding Ratio (human C-peptide (human) [9]): 0%
Absorbance (absorbance at 405 nm) (human C-peptide (human) [10]): 0.001
Binding Ratio (human C-peptide (human) [10]): 0%
Absorbance (absorbance at 405 nm) (human C-peptide (human) [11]): 0.331
Binding Ratio (human C-peptide (human) [11]): 17.1%
Absorbance (absorbance at 405 nm) (human C-peptide (human) [12]): 0.051
Binding Ratio (human C-peptide (human) [12]): 2.6%
Absorbance (absorbance at 405 nm) (human C-peptide (human) [13]): 0.141
Binding Ratio (human C-peptide (human) [13]): 11.1%
Absorbance (absorbance at 405 nm) (human C-peptide (human) [14]): 0.013
Binding Ratio (human C-peptide (human) [14]): 1%
Absorbance (absorbance at 405 nm) (human C-peptide (human) [15]): 0.298
Binding Ratio (human C-peptide (human) [15]): 17.6%
Absorbance (absorbance at 405 nm) (human C-peptide (human) [16]): 0.042
Binding Ratio (human C-peptide (human) [16]): 2.5%
Absorbance (absorbance at 405 nm) (human C-peptide (human) [17]): 0
Binding Ratio (human C-peptide (human) [17]): 0%
Absorbance (absorbance at 405 nm) (human C-peptide (human) [18]): 0
Binding Ratio (human C-peptide (human) [18]): 0%
Absorbance (absorbance at 405 nm) (human C-peptide (human) [19]): 0
Binding Ratio (human C-peptide (human) [19]): 0%
Absorbance (absorbance at 405 nm) (human C-peptide (human) [20]): 0
Binding Ratio (human C-peptide (human) [20]): 0%
Binding Ratio (human C-peptide (human) [21]): 100%
Binding Ratio (human C-peptide (human) [22]): 100%
Binding Ratio (human C-peptide (human) [23]): 100%
Cross-reactivity (%) to Human Proinsulin (human proinsulin (human) [24]): 19.7%
Cross-reactivity (%) to Human Proinsulin (human proinsulin (human) [25]): 12.8%
Cross-reactivity (%) to Human Proinsulin (human proinsulin (human) [26]): 18.1%
Cross-reactivity (%) to Human Proinsulin (human proinsulin (human) [27]): > 15%
Cross-reactivity (%) to Human Proinsulin (human proinsulin (human) [28]): 9.8%
Cross-reactivity (%) to Human Proinsulin (human proinsulin (human) [29]): 8.4%
Cross-reactivity (%) to Human Proinsulin (human proinsulin (human) [30]): 19.6%
Cross-reactivity (%) to Human Proinsulin (human proinsulin (human) [31]): 10.7%
Cross-reactivity (%) to Human Proinsulin (human proinsulin (human) [32]): 17.8%
Cross-reactivity (%) to Human Proinsulin (human proinsulin (human) [33]): 11.7%
Cross-reactivity (%) to Human Proinsulin (human proinsulin (human) [34]): 11.8%
Cross-reactivity (%) to Human Proinsulin (human proinsulin (human) [35]): 12.1%
Cross-reactivity (%) to Modified C-peptide [36]: < 0.5%
Cross-reactivity (%) to Modified C-peptide [37]: < 0.7%
Cross-reactivity (%) to Modified C-peptide [38]: 9.3%
Cross-reactivity (%) to Modified C-peptide [39]: 1.7%
Substance: anti-human C-peptide monoclonal antibody 9101 (Medix Biochemica)
